Experimental findings from paper PMC8217507 (Scientific Reports, 2021) are described below.

First the molecules themselves.
B1: HuMAb 3E1 (antibody, V domains shown)
VH: EVQLLESGGGLVQPGGSLRLSCAASGFTFSRFAMTWVRQAPGKGLEWVSAISGSGGSTFYADSVKGRFTISRDNSKNTLYLQMNSLRAEDTAVYYCVSLGDAWLLYWTPWGQGSLVTVSS
VL: DVVMTQSPLSLPVTLGQPASISCRSSQSLVHGDGNTYLNWFQQRPGQSPRRLIYNVSNRDPGVPDRFSGSGSGTDFTLKISWVEAEDVGVYYCMQATHLPPTFGGGTKVEI
B2: HuMAb 1C3 (antibody, V domains shown)
VH: EVQLVESGGGLVQPGGSLRLSCAASGFTFSDHYIDWVRQAPGKGLEWVGRTSNRANSYTSEYAASVKGRFTISRDDSKNSVYLQMNSLKTEDTAVYFCARDSGWYDFWGQGTLVTVSS
VL: ALTQPASVSGSPGQSITISCTGPSRDLGANNYVSWYQQHPGKAPKLLIYDINNRPSGVPDRFSGSRSGNTASLTISGLQADDEADYYCSSYTRSRTRVFGGGTKLTVL
B3: HuMAb 3G9 (antibody, V domains shown)
VH: EVQLLDSGGGLVQPGGSLRLSCAASGFTFNDYAMTWVRQAPGKGLEWVSTISGSGDGTYYQESLKGRFTISRDNSKNTLYLLMSSLRVDDTAVYYCAKLFGVGDSDGYWGQGTLVTVSS
VL: QAVVTQEPSLTVSPGGTVTLTCGSSTGAVTSDHYFYWFQQKPGQAPRTLIYQTTNKHPWTPARFSGSLLGGKAALTLSGAQPEDEAEYYCLLSYGGGRPVFGGGTKLTVL
notes: also called 3G9-original; 3G9-Original
B4: HuMAb 1E5 (antibody, V domains shown)
VH: QVQLVESGGGVVQPGKSLRVSCAASGFIFSSYGMHWVRQAPGKGLEWVAVISYDGRYKFYADSVKGRFTISRDDSRSTLYLQMNSLRSDDTAVYYCARGRPYIGGDYEYDYFYGMDVWGQGTTVIVSS
VL: IVMTQTPLSSPVTLGQPASISCRSSQSLVHSDGNTYLNWLQQRPGQPPRLLIYNISNRFSGVPDRFSGSGAGTDFTLKINRVEAEDVGVYYCMQATHFPYSFGQGTKLEIK

The target in one assay is T1, DENV2 (strain 16681) prM-E, wild type (Dengue virus type 2, strain 16681, UniProt P29990).
T1 construct: also called wild-type prM-E; DENV-2 prM-E; source: HEK-293T, transfected, in fixed cells
Description: flow cytometry on cells. (Flow cytometry measures light scatter and fluorescence of single cells or particles in a stream.)
B1: the binding result is reported as “binds”.

B2: the binding result is “binds”.

Take B3: the binding result was “binds”.

For the molecule B4, the binding result is “binds”.

The target of the next assay is E protein of DENV-2 Indonesian isolate (cosmopolitan genotype, Surabaya) (Dengue virus type 2, cosmopolitan …, UniProt P14340, strain). Description: cell-based or functional assay.
On to B1, for which the “NT50, neutralization of DENV-2 (Indonesian isolate), Vero cells” value (“NT50, neutralization” for short) stood at 0.05 µg/mL.

For B2, the “NT50, neutralization” value turned out to be 0.12 µg/mL.

B3: the “NT50, neutralization” value turned out to be 0.02 µg/mL.

On to B4, for which the “NT50, neutralization” value amounted to 0.69 µg/mL.
